B1: CPEB3 Ribozyme (parent)
chain: UAACAGGGGGCCACAGCAGAAGCGUUCACGUCGCAGCCCCUGUCAGAUUCUGGUGAAUCUGCGAAUUCUGCUGUAUAUCUC

The variants in this data set derive from B1. Nature of the data set: self-cleavage, relative activity (ratio to wild type); higher = more cleavage; in vitro, sequencing. The procedure, abridged: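 Barcoded CPEB3 ribozyme mutants, produced by rounds of error-prone PCR, self-cleaved while being transcribed with T7 RNA polymerase for 5 hours at 37°C and during a subsequent 15 min DNase I step before EDTA was added. Sequencing of template-switched cDNA on Illumina gave cleaved and total reads, and DNA sequencing assigned barcodes to variants. Each variant's relative activity is its cleaved/total read fraction divided by the unmutated ribozyme's fraction, averaged across three batches. A variant needed a minimum of 5 reads.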
On to UAACAGGGGGCCACAGCAGAAGCGUUCACGUCGCAGCCCCUGUCAGAUUCUGGUGAAUCUGCGAAUUCUGCUGUCGAUCUC [A75C U76G], for which the self-cleavage stood at 1.25.

As to UAACAGGGGGCCACAGCAAAAGCGUUCAGGUCGCAGCCCCUGUCAGAUUCUGGUGAAUCUGCGAAUUCUGCUGUAUAUCUC [G19A C29G], the self-cleavage was found to be 0.24.

Turning to CAACUGGGGGCCACAGCAGAAGCGUUCACGUCGCAGCCCCUGUCAGAUUCUGGUGAAUCUGCGAAUUCUGCUGUAUAUCUC [U1C A5U], the self-cleavage stood at 1.02. The same measure for UAACAGGGGGCCACAGCAGAAGCGUUCACGUCGCAGCCCCCGUCAGAUUCUGGUGAAUCUGCGAAUUCUGCUGAAUAUCUC [U41C U74A]: 1.22; for UAACCGGGGGCCACAGCAGAAGCGUUCACGUCGCAGCCCCUGUCAGAUUCUGGUGAAUCUGCGAAUUCCGCUGUAUAUCUC [A5C U69C]: 0.59. On to UAACAGGGGGCCACAGCUGAAGCGUUCACGUCGCAGCCCCUGUCAGAUUCUGGUGAAUCUGCGAAUUCUGCUGUUUAUCUC [A18U A75U], for which the self-cleavage turned out to be 0.5.

With UAACAGGGGGCCACAGCAGAAGCGUUCACGUUGCAGCCCCUGUCAGAUUCUGGUGAAUCUGCGUAUUCUGCUGUAUAUCUC [C32U A64U], the self-cleavage was 0.13. UAACAGGGGGCCACAGCAGAAGCGUUCACGUCGCGGCCCCAGUCAGAUUCUGGUGAAUCUGCGAAUUCUGCUGUAUAUCUC [A35G U41A]: the self-cleavage came to 0.44.

As for UAACAGGGGGCCACAGCAGAAGCGUUCACGUCGCAGCCCCUGUCAGAUUCUGGUGAAUCUGCGAAUUCUGCUGUAUUCCUC [A77U U78C], the self-cleavage came out at 1.05. The same measure for UAACACGGGGCCACAGCAGGAGCGUUCACGUCGCAGCCCCUGUCAGAUUCUGGUGAAUCUGCGAAUUCUGCUGUAUAUCUC [G6C A20G]: 0.44. The same measure for UAACAGGGGGCCACAGCAGAAGCGUUCACGACGCAGCCCCUGUCAUAUUCUGGUGAAUCUGCGAAUUCUGCUGUAUAUCUC [U31A G46U]: 0.12. The same measure for CAACAGGGGGCCACAGCAGAAGCGUUCACGUCGCAGCCCCUGUCAGAUUCUGGUGAAUCUGCGAAUACUGCUGUAUAUCUC [U1C U67A]: 0.4; for UAACGGGGGGGCACAGCAGAAGCGUUCACGUCGCAGCCCCUGUCAGAUUCUGGUGAAUCUGCGAAUUCUGCUGUAUAUCUC [A5G C11G]: 0.5. As to UAACAGGGGGCCACAGCAGAAGCGUUCACGUAGCAGCCCCUGUCAGAUUCUGGUGAAUCUGCGAAUUCUGCUGCAUAUCUC [C32A U74C], the self-cleavage is 0.22.

On to AACCAGGGGGCCACAGCAGAAGCGUUCACGUCGCAGCCCCUGUCAGAUUCUGGUGAAUCUGCGAAUUCUGCUGUAUAUCUC [U1A A3C], for which the self-cleavage was determined as 1.09. Turning to AAACAGGGGGCCACAGCAGAAGCGUUCACGUCGCAGCCCCUGUCAGAUUCUGGUGAAUCUGCGAAUUCUGCUGUGUAUCUC [U1A A75G], the self-cleavage turned out to be 0.9. In the case of GAACAGGGGGCCACAGCAGAAGCGUUCCCGUCGCAGCCCCUGUCAGAUUCUGGUGAAUCUGCGAAUUCUGCUGUAUAUCUC [U1G A28C], the self-cleavage is 0.6. On to UAACAGGGGGCCACAGCAGAAGCGUUCACGUCGCAGCCCCCGUCAGAUUCUGGUGAAACUGCGAAUUCUGCUGUAUAUCUC [U41C U58A], for which the self-cleavage came out at 0.47. Turning to UAACAGGGGGCCACAGCAAAAGCGUUCACGUCGCAGCCCCUGUCAGAUUCUGGUGAAUCUGCGAAAUCUGCUGUAUAUCUC [G19A U66A], the self-cleavage turned out to be 0.13. For the variant UAACAGGGGGCCACAGCAGAAGCGUUCACGUCACAGCCCCAGUCAGAUUCUGGUGAAUCUGCGAAUUCUGCUGUAUAUCUC [G33A U41A], the self-cleavage is 0.41. The same measure for UAACAGGGGGCCACAGCAAAAGCGUUCACGUCGCAGCCCCUGUCAGAUUCUGGUGAAUCUGCGAAUUCUGCCGUAUAUCUC [G19A U72C]: 0.18; for UAACAGGGGGCCACAGCAGAAGCGUUCACGUCGCAGCCCCUGUCAGAUUCUGGAGAAGCUGCGAAUUCUGCUGUAUAUCUC [U54A U58G]: 0.42; for UAACAGGGAGCCACAGCAGAAGUGUUCACGUCGCAGCCCCUGUCAGAUUCUGGUGAAUCUGCGAAUUCUGCUGUAUAUCUC [G9A C23U]: 0.07. In the case of UAACAGGGGGCCACAGCAGAAGCGUUCACGUCGCAGCCCCUGUCUGAUUCUGGUGAAUCUGCGAAUUCAGCUGUAUAUCUC [A45U U69A], the self-cleavage is 0.31.

Take UAACAGGGGGCCACAGCAGAAGCGUUCACGUCACAGCCCCUGUCAGAUUCUGGUGAAUCUGCGAAUUCUGCUGUUUAUCUC [G33A A75U]: the self-cleavage was 0.11. The same measure for UAACAGGGGGCCACAGCAGAAGCGUCCACGUCGCAGCCCCUGUCAGAUUCUGGUGAAUCUGCGAAUUCUGCUGUACAUCUC [U26C U76C]: 0.52; for UAACAGGGGGCCACUGCAGAAGCGUUCACGUCGCAGCCCCUGUCAGAUUCUGGUGAAUCUGCGAAUUCUGCGGUAUAUCUC [A15U U72G]: 0.91; for UAACAGGGGGCCACAGCAGAAGCGUUCACGUCGCAACCCCUGUCAGAUUCUGGUGAAUCUGCGGAUUCUGCUGUAUAUCUC [G36A A64G]: 0.15.

In the case of UAACAGGGGGCCACAGCAGAAGCGUUCACGUCGCAGCCCCUGUCAGAUUCUGGUGAAUCUGCGAUUUCUGCUGUAUAUCGC [A65U U80G], the self-cleavage worked out at 0.21. The figure for UAACAGGGGGCCACAGCAGAAGCGUUCACGUCGCAGCCCCUGUCAAAUUCUGGUGAAUCUGCGAAUACUGCUGUAUAUCUC [G46A U67A] is 0.18; for UAACAGGGGGCCACAGCAGAAGCGUUCACGUCGCAGCCCCUGUCAGAUUCUGGUGAAUGCGCGAAUUCUGCUGUAUAUCUC [C59G U60C] it is 0.16. The figure for UAACAGGGGGCCACAGCAGAAGCGUUCACAUCGCAGCCCCUGUCAGAAUCUGGUGAAUCUGCGAAUUCUGCUGUAUAUCUC [G30A U48A] is 0.35; for UAACAGGGGCCCACAGCAGAAGCGUUCACGUCGCAGCCCCUGUCAGAUUCUGAUGAAUCUGCGAAUUCUGCUGUAUAUCUC [G10C G53A] it is 0.26; for UAACAGGGGGCCACAGCAGAAGCGUUCACGUCGCAGCCCCUGUCAGAUUCUGGUGAAUCUUCGUAUUCUGCUGUAUAUCUC [G61U A64U] it is 0.23.

Source of the values: the RNAGym collection of RNA variant scans (doi:10.1093/nar/gkz1192).
